Data published in IntAct's records for PubMed 15509585.

B1: Thioredoxin-like protein slr1139 (Synechocystis sp. (strain PCC 6803 / Kazusa)), P73263 (parent)
chain: MSLLEITDAEFEQETQGQTKPVLVYFWASWCGPCRLMAPAIQAIAKDYGDKLKVLKLEVDPNPAAVAQCKVEGVPALRLFKNNELVMTHEGAIAKPKLLELLKEELDFI
partner: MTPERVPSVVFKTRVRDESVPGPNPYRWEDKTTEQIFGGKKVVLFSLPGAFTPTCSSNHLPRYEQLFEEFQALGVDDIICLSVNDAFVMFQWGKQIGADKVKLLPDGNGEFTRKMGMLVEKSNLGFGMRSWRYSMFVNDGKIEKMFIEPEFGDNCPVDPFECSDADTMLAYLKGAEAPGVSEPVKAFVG
B2: Thioredoxin-like protein slr1139 (Synechocystis sp. (strain PCC 6803 / Kazusa)), P73263 (parent)
chain: B1 chain
partner: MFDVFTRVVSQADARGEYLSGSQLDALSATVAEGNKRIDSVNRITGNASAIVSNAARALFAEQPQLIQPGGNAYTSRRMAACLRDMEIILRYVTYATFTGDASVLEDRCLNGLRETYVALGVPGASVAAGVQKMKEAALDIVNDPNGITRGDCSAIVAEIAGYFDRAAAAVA
B3: Thioredoxin-like protein slr1139 (Synechocystis sp. (strain PCC 6803 / Kazusa)), P73263 (parent)
chain: B1 chain
partner: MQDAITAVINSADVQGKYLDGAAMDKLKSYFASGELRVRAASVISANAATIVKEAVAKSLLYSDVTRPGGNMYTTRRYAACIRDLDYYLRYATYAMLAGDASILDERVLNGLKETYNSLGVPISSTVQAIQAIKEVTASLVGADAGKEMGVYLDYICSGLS

Variants of: B1
Conditions: with prx5_syny3 prx5, P73728

Row | effect of a mutation on the interaction | Variant
1 | increasing interaction | C34S

Variants of: B2
Conditions: with phcb_syny3 cpcB

Row | effect of a mutation on the interaction | Variant
2 | increasing interaction | C34S

Variants of: B3
Conditions: with apcb_syny3 apcB

Row | effect of a mutation on the interaction | Variant
3 | increasing interaction | C34S
